In the test the target is T1, human amylin receptor (human calcitonin receptor + human RAMP3) (human) (UniProt P30988).
T1 sequence (looked up) 1: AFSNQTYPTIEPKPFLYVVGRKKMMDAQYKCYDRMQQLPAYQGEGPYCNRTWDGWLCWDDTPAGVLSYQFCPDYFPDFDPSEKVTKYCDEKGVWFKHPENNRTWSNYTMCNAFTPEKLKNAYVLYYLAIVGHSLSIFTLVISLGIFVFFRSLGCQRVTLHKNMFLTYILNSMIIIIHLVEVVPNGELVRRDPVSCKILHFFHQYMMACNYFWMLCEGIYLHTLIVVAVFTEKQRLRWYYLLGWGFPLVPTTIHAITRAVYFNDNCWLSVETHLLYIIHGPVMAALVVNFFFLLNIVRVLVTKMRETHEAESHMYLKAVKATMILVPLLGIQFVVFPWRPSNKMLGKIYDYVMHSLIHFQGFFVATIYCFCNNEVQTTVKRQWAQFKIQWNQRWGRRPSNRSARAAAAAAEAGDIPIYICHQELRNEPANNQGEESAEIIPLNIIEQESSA
T1 sequence (looked up) 2: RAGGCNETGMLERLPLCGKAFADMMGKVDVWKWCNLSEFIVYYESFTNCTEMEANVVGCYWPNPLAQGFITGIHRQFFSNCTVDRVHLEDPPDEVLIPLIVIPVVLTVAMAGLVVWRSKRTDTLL
The experiment in a line: whole-cell competition vs 125I-rat amylin (Assay Va).

Numbered stars: 1 amine (or outer) side, 2 acyl side, 3 side chain; on linkers, the order of the positions; unused ones are H or OH. * marks the point of attachment. C20 diacid = O=C(O)CCCCCCCCCCCCCCCCCCC(=O)*; C18 diacid = O=C(O)CCCCCCCCCCCCCCCCC(=O)*; γGlu = O=C(O)[C@H](CCC(=O)[*:2])N[*:1]

B1: [N-terminal(C20 diacid-gGlu), 23Y, 30S, 31G]mimylin (peptide)
peptide: {C20 diacid-γGlu}-EASELSTAALGRLSAELHELATYPRTETGSGSP-NH2
SMILES: CC(C)C[C@H](NC(=O)[C@H](C)NC(=O)[C@H](C)NC(=O)[C@@H](NC(=O)[C@H](CO)NC(=O)[C@H](CC(C)C)NC(=O)[C@H](CCC(=O)O)NC(=O)[C@H](CO)NC(=O)[C@H](C)NC(=O)[C@H](CCC(=O)O)NC(=O)CC[C@H](NC(=O)CCCCCCCCCCCCCCCCCCC(=O)O)C(=O)O)[C@@H](C)O)C(=O)NCC(=O)N[C@@H](CCCNC(=N)N)C(=O)N[C@@H](CC(C)C)C(=O)N[C@@H](CO)C(=O)N[C@@H](C)C(=O)N[C@@H](CCC(=O)O)C(=O)N[C@@H](CC(C)C)C(=O)N[C@@H](Cc1c[nH]cn1)C(=O)N[C@@H](CCC(=O)O)C(=O)N[C@@H](CC(C)C)C(=O)N[C@@H](C)C(=O)N[C@H](C(=O)N[C@@H](Cc1ccc(O)cc1)C(=O)N1CCC[C@H]1C(=O)N[C@@H](CCCNC(=N)N)C(=O)N[C@H](C(=O)N[C@@H](CCC(=O)O)C(=O)N[C@H](C(=O)NCC(=O)N[C@@H](CO)C(=O)NCC(=O)N[C@@H](CO)C(=O)N1CCC[C@H]1C(N)=O)[C@@H](C)O)[C@@H](C)O)[C@@H](C)O
Turning to B1, the half-maximal inhibitory concentration (IC50) (in general, the midpoint of a concentration-inhibition curve) is 1.59 nM.

B2: [N-terminal(C18 diacid), 4P, 9V]mimylin (peptide)
peptide: {C18 diacid}-EASPLSTAVLGRLSAELHELATLPRTETGPESP-NH2
SMILES: CC(C)C[C@H](NC(=O)[C@H](CCC(=O)O)NC(=O)[C@H](Cc1c[nH]cn1)NC(=O)[C@H](CC(C)C)NC(=O)[C@H](CCC(=O)O)NC(=O)[C@H](C)NC(=O)[C@H](CO)NC(=O)[C@H](CC(C)C)NC(=O)[C@H](CCCNC(=N)N)NC(=O)CNC(=O)[C@H](CC(C)C)NC(=O)[C@@H](NC(=O)[C@H](C)NC(=O)[C@@H](NC(=O)[C@H](CO)NC(=O)[C@H](CC(C)C)NC(=O)[C@@H]1CCCN1C(=O)[C@H](CO)NC(=O)[C@H](C)NC(=O)[C@H](CCC(=O)O)NC(=O)CCCCCCCCCCCCCCCCC(=O)O)[C@@H](C)O)C(C)C)C(=O)N[C@@H](C)C(=O)N[C@H](C(=O)N[C@@H](CC(C)C)C(=O)N1CCC[C@H]1C(=O)N[C@@H](CCCNC(=N)N)C(=O)N[C@H](C(=O)N[C@@H](CCC(=O)O)C(=O)N[C@H](C(=O)NCC(=O)N1CCC[C@H]1C(=O)N[C@@H](CCC(=O)O)C(=O)N[C@@H](CO)C(=O)N1CCC[C@H]1C(N)=O)[C@@H](C)O)[C@@H](C)O)[C@@H](C)O
In the case of B2, the IC50 was 0.323 nM.

B3: [N-terminal(C18 diacid), 3P, 9V]mimylin (peptide)
peptide: {C18 diacid}-EAPELSTAVLGRLSAELHELATLPRTETGPESP-NH2
SMILES: CC(C)C[C@H](NC(=O)[C@H](CCC(=O)O)NC(=O)[C@H](Cc1c[nH]cn1)NC(=O)[C@H](CC(C)C)NC(=O)[C@H](CCC(=O)O)NC(=O)[C@H](C)NC(=O)[C@H](CO)NC(=O)[C@H](CC(C)C)NC(=O)[C@H](CCCNC(=N)N)NC(=O)CNC(=O)[C@H](CC(C)C)NC(=O)[C@@H](NC(=O)[C@H](C)NC(=O)[C@@H](NC(=O)[C@H](CO)NC(=O)[C@H](CC(C)C)NC(=O)[C@H](CCC(=O)O)NC(=O)[C@@H]1CCCN1C(=O)[C@H](C)NC(=O)[C@H](CCC(=O)O)NC(=O)CCCCCCCCCCCCCCCCC(=O)O)[C@@H](C)O)C(C)C)C(=O)N[C@@H](C)C(=O)N[C@H](C(=O)N[C@@H](CC(C)C)C(=O)N1CCC[C@H]1C(=O)N[C@@H](CCCNC(=N)N)C(=O)N[C@H](C(=O)N[C@@H](CCC(=O)O)C(=O)N[C@H](C(=O)NCC(=O)N1CCC[C@H]1C(=O)N[C@@H](CCC(=O)O)C(=O)N[C@@H](CO)C(=O)N1CCC[C@H]1C(N)=O)[C@@H](C)O)[C@@H](C)O)[C@@H](C)O
Take B3: the IC50 came out at 0.352 nM.

B4: [N-terminal(C18 diacid), 9V, 25P]mimylin (peptide)
peptide: {C18 diacid}-EASELSTAVLGRLSAELHELATLPPTETGPESP-NH2
SMILES: CC(C)C[C@H](NC(=O)[C@H](CCC(=O)O)NC(=O)[C@H](Cc1c[nH]cn1)NC(=O)[C@H](CC(C)C)NC(=O)[C@H](CCC(=O)O)NC(=O)[C@H](C)NC(=O)[C@H](CO)NC(=O)[C@H](CC(C)C)NC(=O)[C@H](CCCNC(=N)N)NC(=O)CNC(=O)[C@H](CC(C)C)NC(=O)[C@@H](NC(=O)[C@H](C)NC(=O)[C@@H](NC(=O)[C@H](CO)NC(=O)[C@H](CC(C)C)NC(=O)[C@H](CCC(=O)O)NC(=O)[C@H](CO)NC(=O)[C@H](C)NC(=O)[C@H](CCC(=O)O)NC(=O)CCCCCCCCCCCCCCCCC(=O)O)[C@@H](C)O)C(C)C)C(=O)N[C@@H](C)C(=O)N[C@H](C(=O)N[C@@H](CC(C)C)C(=O)N1CCC[C@H]1C(=O)N1CCC[C@H]1C(=O)N[C@H](C(=O)N[C@@H](CCC(=O)O)C(=O)N[C@H](C(=O)NCC(=O)N1CCC[C@H]1C(=O)N[C@@H](CCC(=O)O)C(=O)N[C@@H](CO)C(=O)N1CCC[C@H]1C(N)=O)[C@@H](C)O)[C@@H](C)O)[C@@H](C)O
As for B4, the IC50 was 0.383 nM.

B5: [N-terminal(C18 diacid), 9V, 18A]mimylin (peptide)
peptide: {C18 diacid}-EASELSTAVLGRLSAELAELATLPRTETGPESP-NH2
SMILES: CC(C)C[C@H](NC(=O)[C@H](CCC(=O)O)NC(=O)[C@H](C)NC(=O)[C@H](CO)NC(=O)[C@H](CC(C)C)NC(=O)[C@H](CCCNC(=N)N)NC(=O)CNC(=O)[C@H](CC(C)C)NC(=O)[C@@H](NC(=O)[C@H](C)NC(=O)[C@@H](NC(=O)[C@H](CO)NC(=O)[C@H](CC(C)C)NC(=O)[C@H](CCC(=O)O)NC(=O)[C@H](CO)NC(=O)[C@H](C)NC(=O)[C@H](CCC(=O)O)NC(=O)CCCCCCCCCCCCCCCCC(=O)O)[C@@H](C)O)C(C)C)C(=O)N[C@@H](C)C(=O)N[C@@H](CCC(=O)O)C(=O)N[C@@H](CC(C)C)C(=O)N[C@@H](C)C(=O)N[C@H](C(=O)N[C@@H](CC(C)C)C(=O)N1CCC[C@H]1C(=O)N[C@@H](CCCNC(=N)N)C(=O)N[C@H](C(=O)N[C@@H](CCC(=O)O)C(=O)N[C@H](C(=O)NCC(=O)N1CCC[C@H]1C(=O)N[C@@H](CCC(=O)O)C(=O)N[C@@H](CO)C(=O)N1CCC[C@H]1C(N)=O)[C@@H](C)O)[C@@H](C)O)[C@@H](C)O
As for B5, the IC50 came out at 0.745 nM.

B6: [N-terminal(C18 diacid), 2P, 9V]mimylin (peptide)
peptide: {C18 diacid}-EPSELSTAVLGRLSAELHELATLPRTETGPESP-NH2
SMILES: CC(C)C[C@H](NC(=O)[C@H](CCC(=O)O)NC(=O)[C@H](Cc1c[nH]cn1)NC(=O)[C@H](CC(C)C)NC(=O)[C@H](CCC(=O)O)NC(=O)[C@H](C)NC(=O)[C@H](CO)NC(=O)[C@H](CC(C)C)NC(=O)[C@H](CCCNC(=N)N)NC(=O)CNC(=O)[C@H](CC(C)C)NC(=O)[C@@H](NC(=O)[C@H](C)NC(=O)[C@@H](NC(=O)[C@H](CO)NC(=O)[C@H](CC(C)C)NC(=O)[C@H](CCC(=O)O)NC(=O)[C@H](CO)NC(=O)[C@@H]1CCCN1C(=O)[C@H](CCC(=O)O)NC(=O)CCCCCCCCCCCCCCCCC(=O)O)[C@@H](C)O)C(C)C)C(=O)N[C@@H](C)C(=O)N[C@H](C(=O)N[C@@H](CC(C)C)C(=O)N1CCC[C@H]1C(=O)N[C@@H](CCCNC(=N)N)C(=O)N[C@H](C(=O)N[C@@H](CCC(=O)O)C(=O)N[C@H](C(=O)NCC(=O)N1CCC[C@H]1C(=O)N[C@@H](CCC(=O)O)C(=O)N[C@@H](CO)C(=O)N1CCC[C@H]1C(N)=O)[C@@H](C)O)[C@@H](C)O)[C@@H](C)O
For B6, the half-inhibitory concentration (IC50) worked out at 0.375 nM.

B7: [N-terminal(C18 diacid), 9V, 28P]mimylin (peptide)
peptide: {C18 diacid}-EASELSTAVLGRLSAELHELATLPRTEPGPESP-NH2
SMILES: CC(C)C[C@H](NC(=O)[C@H](CCC(=O)O)NC(=O)[C@H](Cc1c[nH]cn1)NC(=O)[C@H](CC(C)C)NC(=O)[C@H](CCC(=O)O)NC(=O)[C@H](C)NC(=O)[C@H](CO)NC(=O)[C@H](CC(C)C)NC(=O)[C@H](CCCNC(=N)N)NC(=O)CNC(=O)[C@H](CC(C)C)NC(=O)[C@@H](NC(=O)[C@H](C)NC(=O)[C@@H](NC(=O)[C@H](CO)NC(=O)[C@H](CC(C)C)NC(=O)[C@H](CCC(=O)O)NC(=O)[C@H](CO)NC(=O)[C@H](C)NC(=O)[C@H](CCC(=O)O)NC(=O)CCCCCCCCCCCCCCCCC(=O)O)[C@@H](C)O)C(C)C)C(=O)N[C@@H](C)C(=O)N[C@H](C(=O)N[C@@H](CC(C)C)C(=O)N1CCC[C@H]1C(=O)N[C@@H](CCCNC(=N)N)C(=O)N[C@H](C(=O)N[C@@H](CCC(=O)O)C(=O)N1CCC[C@H]1C(=O)NCC(=O)N1CCC[C@H]1C(=O)N[C@@H](CCC(=O)O)C(=O)N[C@@H](CO)C(=O)N1CCC[C@H]1C(N)=O)[C@@H](C)O)[C@@H](C)O
Regarding B7, the IC50 was 9 nM.

B8: [N-terminal(C18 diacid), 9L, 10A]mimylin (peptide)
peptide: {C18 diacid}-EASELSTALAGRLSAELHELATLPRTETGPESP-NH2
SMILES: CC(C)C[C@H](NC(=O)[C@H](C)NC(=O)[C@@H](NC(=O)[C@H](CO)NC(=O)[C@H](CC(C)C)NC(=O)[C@H](CCC(=O)O)NC(=O)[C@H](CO)NC(=O)[C@H](C)NC(=O)[C@H](CCC(=O)O)NC(=O)CCCCCCCCCCCCCCCCC(=O)O)[C@@H](C)O)C(=O)N[C@@H](C)C(=O)NCC(=O)N[C@@H](CCCNC(=N)N)C(=O)N[C@@H](CC(C)C)C(=O)N[C@@H](CO)C(=O)N[C@@H](C)C(=O)N[C@@H](CCC(=O)O)C(=O)N[C@@H](CC(C)C)C(=O)N[C@@H](Cc1c[nH]cn1)C(=O)N[C@@H](CCC(=O)O)C(=O)N[C@@H](CC(C)C)C(=O)N[C@@H](C)C(=O)N[C@H](C(=O)N[C@@H](CC(C)C)C(=O)N1CCC[C@H]1C(=O)N[C@@H](CCCNC(=N)N)C(=O)N[C@H](C(=O)N[C@@H](CCC(=O)O)C(=O)N[C@H](C(=O)NCC(=O)N1CCC[C@H]1C(=O)N[C@@H](CCC(=O)O)C(=O)N[C@@H](CO)C(=O)N1CCC[C@H]1C(N)=O)[C@@H](C)O)[C@@H](C)O)[C@@H](C)O
Take B8: the IC50 worked out at 0.374 nM.

Values taken from US20160272683A1 (Novo Nordisk, published 2016).
